What was measured:
[1] = test system: T1, RspWYL1 (WP_046441785.1, Ruminococcus sp. N15.MGS-57 WYL1 accessory protein)
T1 sequence: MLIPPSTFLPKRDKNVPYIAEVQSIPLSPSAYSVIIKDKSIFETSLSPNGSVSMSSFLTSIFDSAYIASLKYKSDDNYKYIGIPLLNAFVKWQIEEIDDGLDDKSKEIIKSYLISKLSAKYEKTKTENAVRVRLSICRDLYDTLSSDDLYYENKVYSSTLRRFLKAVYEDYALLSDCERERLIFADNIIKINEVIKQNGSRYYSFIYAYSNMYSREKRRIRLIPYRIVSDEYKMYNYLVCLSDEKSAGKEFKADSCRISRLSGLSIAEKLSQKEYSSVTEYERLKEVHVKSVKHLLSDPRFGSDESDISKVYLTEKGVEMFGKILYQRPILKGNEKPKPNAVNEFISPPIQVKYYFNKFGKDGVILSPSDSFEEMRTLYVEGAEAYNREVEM

[2] = target: T2, RspWYL1 (WP_046441785.1, Ruminococcus sp. N15.MGS-57 WYL1 accessory protein)
T2 chain: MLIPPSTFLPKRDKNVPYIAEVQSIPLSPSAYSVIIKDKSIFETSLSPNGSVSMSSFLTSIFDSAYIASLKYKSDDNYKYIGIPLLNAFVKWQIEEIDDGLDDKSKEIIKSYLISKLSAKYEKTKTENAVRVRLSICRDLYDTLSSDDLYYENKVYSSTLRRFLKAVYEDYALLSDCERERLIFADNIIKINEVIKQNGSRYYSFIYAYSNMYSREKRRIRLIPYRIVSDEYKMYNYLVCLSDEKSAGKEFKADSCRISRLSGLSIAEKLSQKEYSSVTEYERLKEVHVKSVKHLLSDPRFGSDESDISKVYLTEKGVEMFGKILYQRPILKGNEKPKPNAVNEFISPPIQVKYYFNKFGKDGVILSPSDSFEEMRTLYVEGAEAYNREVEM

Q: With Bergeyella zoohelcum Cas13b (BzCas13b) as the molecule, how does the “in vitro ssRNA cleavage activity (denaturing gel)” value [1] read?
A: RspWYL1 enhanced the activity of BzCas13b

B1: RspCas13d (WP_046441786.1, Ruminococcus sp. N15.MGS-57 Type VI-D CRISPR-Cas effector) (protein)
chain: MAKKNKMKPRELREAQKKARQLKAAEINNNAAPAIAAMPAAEVIAPVAEKKKSSVKAAGMKSILVSKNKMYITSFGKGNSAVLEYEVDNNDYNQTQLSSKGSSNIELRGVNEVNITFSSKHGFESGVEINTSNPTHRSGESSPVRGDMLGLKSELEKRFFGKTFDDNIHIQLIYNILDIEKILAVYVTNIVYALNNMLSIKDSESYDDFMGYLSARNTYEVFTHPDKSNLSDKAKGNIKKSFSTFNDLLKTKRLGYFGLEEPKTKDTRVSQAYKKRVYHMLAIVGQIRQSVFHDKSSKLDEDLYSFIDIIDSEYRETLDYLVDERFDSINKGFIQGNKVNISLLIDMMKGYEADDIIRLYYDFIVLKSQKNLGFSIKKLREKMLDEYGFRFKDKQYDSVRSKMYKLMDFLLFCNYYRNDVVAGEALVRKLRFSMTDDEKEGIYADEASKLWGKFRNDFENIADHMNGDVIKELGKADMDFDEKILDSEKKNASDLLYFSKMIYMLTYFLDGKEINDLLTTLISKFDNIKEFLKIMKSSAVDVECELTAGYKLFNDSQRITNELFIVKNIASMRKPASSAKLTMFRDALTILGIDDNITDDRISEILKLKEKGKGIHGLRNFITNNVIESSRFVYLIKYANAQKIRKVAKNEKVVMFVLGGIPDTQIERYYKSCVEFPDMNSSLEVKRSELARMIKNISFDDFKNVKQQAKGRENVAKERAKAVIGLYLTVMYLLVKNLVNVNARYVIAIHCLERDFGLYKEIIPELASKNLKNDYRILSQTLCELCDKSPNLFLKKNERLRKCVEVDINNADSSMTRKYRNCIAHLTVVRELKEYIGDIRTVDSYFSIYHYVMQRCITKRENDTKQEEKIKYEDDLLKNHGYTKDFVKALNSPFGYNIPRFKNLSIEQLFDRNEYLTEK
Q: For B1, which “targeted and collateral ssRNA cleavage activity (in vitro ssRNA cleavage assay, denaturing gel)” value [2] is on record?
A: RspWYL1 increases both the targeted and collateral ssRNA cleavage activity of RspCas13d in a dose-dependent manner, with a molar excess of RspWYL1 yielding the greatest increase in Cas13d activity

B2: EsCas13d (WP_005358205.1, Eubacterium siraeum DSM 15702 Type VI-D CRISPR-Cas effector) (protein)
chain: MGKKIHARDLREQRKTDRTEKFADQNKKREAERAVPKKDAAVSVKSVSSVSSKKDNVTKSMAKAAGVKSVFAVGNTVYMTSFGRGNDAVLEQKIVDTSHEPLNIDDPAYQLNVVTMNGYSVTGHRGETVSAVTDNPLRRFNGRKKDEPEQSVPTDMLCLKPTLEKKFFGKEFDDNIHIQLIYNILDIEKILAVYSTNAIYALNNMSADENIENSDFFMKRTTDETFDDFEKKKESTNSREKADFDAFEKFIGNYRLAYFADAFYVNKKNPKGKAKNVLREDKELYSVLTLIGKLRHWCVHSEEGRAEFWLYKLDELKDDFKNVLDVVYNRPVEEINNRFIENNKVNIQILGSVYKNTDIAELVRSYYEFLITKKYKNMGFSIKKLRESMLEGKGYADKEYDSVRNKLYQMTDFILYTGYINEDSDRADDLVNTLRSSLKEDDKTTVYCKEADYLWKKYRESIREVADALDGDNIKKLSKSNIEIQEDKLRKCFISYADSVSEFTKLIYLLTRFLSGKEINDLVTTLINKFDNIRSFLEIMDELGLDRTFTAEYSFFEGSTKYLAELVELNSFVKSCSFDINAKRTMYRDALDILGIESDKTEEDIEKMIDNILQIDANGDKKLKKNNGLRNFIASNVIDSNRFKYLVRYGNPKKIRETAKCKPAVRFVLNEIPDAQIERYYEACCPKNTALCSANKRREKLADMIAEIKFENFSDAGNYQKANVTSRTSEAEIKRKNQAIIRLYLTVMYIMLKNLVNVNARYVIAFHCVERDTKLYAESGLEVGNIEKNKTNLTMAVMGVKLENGIIKTEFDKSFAENAANRYLRNARWYKLILDNLKKSERAVVNEFRNTVCHLNAIRNININIKEIKEVENYFALYHYLIQKHLENRFADKKVERDTGDFISKLEEHKTYCKDFVKAYCTPFGYNLVRYKNLTIDGLFDKNYPGKDDSDEQK
Q: For B2, which “targeted and collateral ssRNA nuclease activities (in vitro ssRNA cleavage assay, denaturing gel)” value [2] is on record?
A: RspWYL1 enhanced the targeted and collateral ssRNA nuclease activities of EsCas13d to a similar extent as observed for RspCas13d
